Assay results published in publication PMC10481361, “Structural insight into G-protein chaperone-mediated maturation of a bacterial adenosylcobalamin-dependent mutase” (The Journal of Biological Chemistry, 2023).

Tests used:
[1] = target: T1, IcmF (isobutyryl-CoA mutase fused) (Cupriavidus metallidurans, UniProt Q1LRY0); experiment: negative stain EM of oligomers; assay type: binding; details: 500 μM GMPPNP; pH 8; with hydroxocobalamin or photolysed AdoCbl; weaker oligomerization agonist than GMPPCP
T1 construct: resting homodimer; oligomerizes with GTP/GMPPCP; modelled residues 22-1093
T1 sequence (Q1LRY0 1-1093): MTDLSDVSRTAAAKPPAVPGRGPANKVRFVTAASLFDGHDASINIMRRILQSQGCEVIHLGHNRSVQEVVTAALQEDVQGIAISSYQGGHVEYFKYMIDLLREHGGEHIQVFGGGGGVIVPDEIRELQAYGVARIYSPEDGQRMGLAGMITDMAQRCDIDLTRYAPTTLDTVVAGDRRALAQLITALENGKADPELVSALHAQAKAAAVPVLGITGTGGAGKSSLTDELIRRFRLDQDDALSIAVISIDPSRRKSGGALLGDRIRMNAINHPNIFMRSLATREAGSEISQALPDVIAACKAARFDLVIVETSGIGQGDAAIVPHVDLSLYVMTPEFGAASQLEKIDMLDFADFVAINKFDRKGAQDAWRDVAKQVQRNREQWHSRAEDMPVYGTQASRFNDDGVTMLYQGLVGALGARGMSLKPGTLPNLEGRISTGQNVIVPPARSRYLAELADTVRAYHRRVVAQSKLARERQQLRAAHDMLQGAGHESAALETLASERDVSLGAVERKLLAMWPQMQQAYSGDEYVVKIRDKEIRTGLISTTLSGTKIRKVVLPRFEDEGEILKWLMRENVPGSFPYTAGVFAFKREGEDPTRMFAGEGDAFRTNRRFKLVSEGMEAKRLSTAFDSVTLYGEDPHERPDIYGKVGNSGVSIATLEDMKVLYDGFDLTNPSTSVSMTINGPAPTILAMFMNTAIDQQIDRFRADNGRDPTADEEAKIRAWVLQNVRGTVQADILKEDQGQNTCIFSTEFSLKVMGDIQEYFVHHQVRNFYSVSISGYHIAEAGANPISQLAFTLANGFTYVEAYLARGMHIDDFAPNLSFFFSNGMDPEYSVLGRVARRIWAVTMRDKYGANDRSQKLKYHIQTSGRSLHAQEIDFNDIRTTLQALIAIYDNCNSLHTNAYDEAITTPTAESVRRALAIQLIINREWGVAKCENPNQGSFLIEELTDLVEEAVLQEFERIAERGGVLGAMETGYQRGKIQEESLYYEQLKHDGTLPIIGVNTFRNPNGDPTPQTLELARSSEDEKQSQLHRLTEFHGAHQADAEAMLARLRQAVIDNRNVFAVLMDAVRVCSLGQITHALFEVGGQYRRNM

[2] = target: T2, IcmF (isobutyryl-CoA mutase fused) (Cupriavidus metallidurans, UniProt Q1LRY0, Q341A); experiment: cryo-EM, […] Å; assay type: binding; details: sample prepared with 500 μM GTP, 2 μM enzyme; GDP modelled at each nucleotide site of the G-protein domain; Mg2+ in chain A
T2 construct: resting homodimer; oligomerizes with GTP/GMPPCP; modelled residues 22-1093

purified protein = substrate: Nc1nc2c(ncn2[C@@H]2O[C@H](COP(=O)(O)OP(=O)(O)OP(=O)(O)O)[C@@H](O)[C@H]2O)c(=O)[nH]1; experiment: purified protein; assay type: biochemical, Cupriavidus metallidurans; details: GTPase, 0.5 μM enzyme, 23 °C, GTP 2–1500 μM
[3] = target: the molecule itself; experiment: negative stain EM; 20 ng/μl wt IcmF in 20 mM Hepes pH 8, 50 mM NaCl, no nucleotide or 500 μM GDP (30 min on ice); dimer seen, dimer with dimer not seen
[4] = target: the molecule itself; experiment: cryo-EM structure; 2 μM Q341A IcmF, 500 μM GTP in SEC buffer; 4.6 Å reconstruction, three protomers modelled

Which “negative stain EM of oligomers” value [1] does the source give for `Nc1nc2c(ncn2[C@@H]2O[C@H](COP(=O)(O)OP(=O)(O)NP(=O)(O)O)[C@@H](O)[C@H]2O)c(=O)[nH]1` [GMPPNP] here?
Its value is “Photolysis of AdoCbl leads to more supramolecular complex formation but not as many as in the GMPPNP + OHCbl”.

How did the “cryo-EM, 4.6 Å” value [2] turn out when `Nc1nc2c(ncn2[C@@H]2O[C@H](COP(=O)(O)OP(=O)(O)O)[C@@H](O)[C@H]2O)c(=O)[nH]1` [GDP] was run?
Its value is “there was clear density for GDP at each nucleotide-binding site”.

B1: Cupriavidus metallidurans isobutyryl-CoA mutase fused (IcmF), wild type (enzyme, UniProt Q1LRY0 1-1093, looked up)
chain: MTDLSDVSRTAAAKPPAVPGRGPANKVRFVTAASLFDGHDASINIMRRILQSQGCEVIHLGHNRSVQEVVTAALQEDVQGIAISSYQGGHVEYFKYMIDLLREHGGEHIQVFGGGGGVIVPDEIRELQAYGVARIYSPEDGQRMGLAGMITDMAQRCDIDLTRYAPTTLDTVVAGDRRALAQLITALENGKADPELVSALHAQAKAAAVPVLGITGTGGAGKSSLTDELIRRFRLDQDDALSIAVISIDPSRRKSGGALLGDRIRMNAINHPNIFMRSLATREAGSEISQALPDVIAACKAARFDLVIVETSGIGQGDAAIVPHVDLSLYVMTPEFGAASQLEKIDMLDFADFVAINKFDRKGAQDAWRDVAKQVQRNREQWHSRAEDMPVYGTQASRFNDDGVTMLYQGLVGALGARGMSLKPGTLPNLEGRISTGQNVIVPPARSRYLAELADTVRAYHRRVVAQSKLARERQQLRAAHDMLQGAGHESAALETLASERDVSLGAVERKLLAMWPQMQQAYSGDEYVVKIRDKEIRTGLISTTLSGTKIRKVVLPRFEDEGEILKWLMRENVPGSFPYTAGVFAFKREGEDPTRMFAGEGDAFRTNRRFKLVSEGMEAKRLSTAFDSVTLYGEDPHERPDIYGKVGNSGVSIATLEDMKVLYDGFDLTNPSTSVSMTINGPAPTILAMFMNTAIDQQIDRFRADNGRDPTADEEAKIRAWVLQNVRGTVQADILKEDQGQNTCIFSTEFSLKVMGDIQEYFVHHQVRNFYSVSISGYHIAEAGANPISQLAFTLANGFTYVEAYLARGMHIDDFAPNLSFFFSNGMDPEYSVLGRVARRIWAVTMRDKYGANDRSQKLKYHIQTSGRSLHAQEIDFNDIRTTLQALIAIYDNCNSLHTNAYDEAITTPTAESVRRALAIQLIINREWGVAKCENPNQGSFLIEELTDLVEEAVLQEFERIAERGGVLGAMETGYQRGKIQEESLYYEQLKHDGTLPIIGVNTFRNPNGDPTPQTLELARSSEDEKQSQLHRLTEFHGAHQADAEAMLARLRQAVIDNRNVFAVLMDAVRVCSLGQITHALFEVGGQYRRNM
notes: Isobutyryl-CoA mutase fused (IcmF) of Cupriavidus metallidurans; Resting state is a homodimer; dimers join through their G-protein domains into higher-order oligomers; The plasmid has a thrombin cleavage site after the His-tag; no cleavage is described; also called wt IcmF; cmIcmF; source: E. coli BL21 T7 Express, purified (Ni-NTA, MonoQ, SEC)
B1 was tested. Which Km (purified protein) did it give?
The Km was 2.4 ± 0.9 µM.

What about the Vmax (purified protein) of the same molecule?
The Vmax was 1.57 µM/min.

What about the kcat (purified protein) of the same molecule?
The kcat was 0.0522 ± 0.003 s⁻¹.

What about the kcat/Km (purified protein) of the same molecule?
Its kcat/Km is 21700 M⁻¹ s⁻¹.

What about the “stoichiometry N” value [3] of the same molecule?
Its value is 2.

B2: Cupriavidus metallidurans isobutyryl-CoA mutase fused (IcmF), Q341A switch III variant (enzyme, UniProt Q1LRY0 1-1093, looked up)
chain: MTDLSDVSRTAAAKPPAVPGRGPANKVRFVTAASLFDGHDASINIMRRILQSQGCEVIHLGHNRSVQEVVTAALQEDVQGIAISSYQGGHVEYFKYMIDLLREHGGEHIQVFGGGGGVIVPDEIRELQAYGVARIYSPEDGQRMGLAGMITDMAQRCDIDLTRYAPTTLDTVVAGDRRALAQLITALENGKADPELVSALHAQAKAAAVPVLGITGTGGAGKSSLTDELIRRFRLDQDDALSIAVISIDPSRRKSGGALLGDRIRMNAINHPNIFMRSLATREAGSEISQALPDVIAACKAARFDLVIVETSGIGQGDAAIVPHVDLSLYVMTPEFGAASALEKIDMLDFADFVAINKFDRKGAQDAWRDVAKQVQRNREQWHSRAEDMPVYGTQASRFNDDGVTMLYQGLVGALGARGMSLKPGTLPNLEGRISTGQNVIVPPARSRYLAELADTVRAYHRRVVAQSKLARERQQLRAAHDMLQGAGHESAALETLASERDVSLGAVERKLLAMWPQMQQAYSGDEYVVKIRDKEIRTGLISTTLSGTKIRKVVLPRFEDEGEILKWLMRENVPGSFPYTAGVFAFKREGEDPTRMFAGEGDAFRTNRRFKLVSEGMEAKRLSTAFDSVTLYGEDPHERPDIYGKVGNSGVSIATLEDMKVLYDGFDLTNPSTSVSMTINGPAPTILAMFMNTAIDQQIDRFRADNGRDPTADEEAKIRAWVLQNVRGTVQADILKEDQGQNTCIFSTEFSLKVMGDIQEYFVHHQVRNFYSVSISGYHIAEAGANPISQLAFTLANGFTYVEAYLARGMHIDDFAPNLSFFFSNGMDPEYSVLGRVARRIWAVTMRDKYGANDRSQKLKYHIQTSGRSLHAQEIDFNDIRTTLQALIAIYDNCNSLHTNAYDEAITTPTAESVRRALAIQLIINREWGVAKCENPNQGSFLIEELTDLVEEAVLQEFERIAERGGVLGAMETGYQRGKIQEESLYYEQLKHDGTLPIIGVNTFRNPNGDPTPQTLELARSSEDEKQSQLHRLTEFHGAHQADAEAMLARLRQAVIDNRNVFAVLMDAVRVCSLGQITHALFEVGGQYRRNM
notes: Isobutyryl-CoA mutase fused (IcmF) of Cupriavidus metallidurans with Q341A in the switch III region of the G-protein domain; also called Q341A IcmF; source: E. coli BL21 T7 Express, purified (Ni-NTA, MonoQ, SEC)
For B2, which Km (purified protein) is on record?
Its Km is 2.2 ± 0.8 µM.

What about the Vmax (purified protein) of the same molecule?
The Vmax was 0.533 µM/min.

What about the kcat (purified protein) of the same molecule?
The kcat was 0.0178 ± 0.00117 s⁻¹.

What about the kcat/Km (purified protein) of the same molecule?
Its kcat/Km is 8170 M⁻¹ s⁻¹.

Does B2 bind [4]?
Result: binds
